The values below are quoted from earlier work in article PMC12590814.

Read-outs that look alike come from different tables or passages of the source.

As usually defined, the Kd is the constant that tells how readily two partners part at equilibrium.

Data set [1] concerns the target calmodulin (Homo sapiens) (UniProt P0DP23).
Data set [2] has the same target. This is another data set of the same source.

With PMCA2 (from UniProt Q01814), in data set [1], the Kd was 7.5 nM.
With PMCA3 (from UniProt Q16720), the Kd in data set [2] is 7.5 nM.
